Laboratory results as given in patent US20220259268A1 (NATIONAL UNIVERSITY CORPORATION TOKAI NATIONAL HIGHER …, published 2022).

Biological target: the molecule itself
Test: dynamic light scattering of liposomes carrying Nhead-SNAP on the surface layer

B1: Nhead-SNAP fusion peptide (AtaA59-325-GCN4pII-SNAP-His) (other)
chain: not shown
notes: also called E. coli recombinant Nhead-SNAP
binding result: no binding
